Values quoted from earlier work, collected in paper PMC12524660.

Biological target: Cys156 (UniProt position 156, VSNASCTTNCL)

## Cytosolic NAD-dependent glyceraldehyde-3-phosphate dehydrogenase C1 (GAPC1) (Arabidopsis thaliana)
  pKa: below pH 6
